Measured values from the supplement of paper PMC10567573.

B1: IQUB (parent)
chain: KIREKEEWIKLDYHRRHNPKTNED

Variants of: B1
Experiment: protein stability index of a GFP-peptide fusion (GPS, HEK-293T) (PSI 1-6); higher = more stable
Details: c terminus: a fixed tail appended
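Further: lentivirally expressed fusions sorted by FACS into six bins by GFP to DsRed ratio, PSI derived from sequencing read proportions per bin multiplied by bin number.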

Row | Variant | protein stability index
1 | KIREKEEWIKLDFHRRHNPKTNED [Y13F] | 4.51
2 | KIREKEEWIKLDEHRRHNPKTNED [Y13E] | 5.18
3 | KIREKEEWIKLDIHRRHNPKTNED [Y13I] | 3.95
4 | KIREKEEWIKLDTHRRHNPKTNED [Y13T] | 4.49
5 | KIREKEEWIKLDQHRRHNPKTNED [Y13Q] | 5.04
6 | KIREKEEWIKLDSHRRHNPKTNED [Y13S] | 5.11
7 | KIREKEEWIKLDPHRRHNPKTNED [Y13P] | 4.51
8 | KIREKEEWIKLDCHRRHNPKTNED [Y13C] | 4.33
9 | KIREKEEWIKLDGHRRHNPKTNED [Y13G] | 4.99
10 | KIREKEEWIKLDAHRRHNPKTNED [Y13A] | 4.36
11 | KIREKEEWIKLDNHRRHNPKTNED [Y13N] | 5.41
12 | KIREKEEWIKLDWHRRHNPKTNED [Y13W] | 4.18
13 | KIREKEEWIKLDRHRRHNPKTNED [Y13R] | 5.28
14 | KIREKEEWIKLDDHRRHNPKTNED [Y13D] | 5.04
15 | KIREKEEWIKLDHHRRHNPKTNED [Y13H] | 4.87
16 | KIREKEEWIKLDMHRRHNPKTNED [Y13M] | 4.76
17 | KIREKEEWIKLDKHRRHNPKTNED [Y13K] | 5.3
18 | KIREKEEWIKLDVHRRHNPKTNED [Y13V] | 4.64
19 | KIREKEEWIKLDLHRRHNPKTNED [Y13L] | 4.8
20 | KIREKEEWIKLDYHRNHNPKTNED [R16N] | 4.91
21 | KIREKEEWIKLDYHRAHNPKTNED [R16A] | 4.54
22 | KIREKEEWIKLDYHRKHNPKTNED [R16K] | 3.6
23 | KIREKEEWIKLDYHRQHNPKTNED [R16Q] | 5.08
24 | KIREKEEWIKLDYHRPHNPKTNED [R16P] | 4.75

Row | Variant | protein stability index
25 | KIREKEEWIKLDYHRCHNPKTNED [R16C] | 4.52
26 | KIREKEEWIKLDYHRLHNPKTNED [R16L] | 3.86
27 | KIREKEEWIKLDYHRDHNPKTNED [R16D] | 3.61
28 | KIREKEEWIKLDYHRGHNPKTNED [R16G] | 4.74
29 | KIREKEEWIKLDYHREHNPKTNED [R16E] | 5.2
30 | KIREKEEWIKLDYHRWHNPKTNED [R16W] | 4.22
31 | KIREKEEWIKLDYHRTHNPKTNED [R16T] | 4.94
32 | KIREKEEWIKLDYHRIHNPKTNED [R16I] | 4.38
33 | KIREKEEWIKLDYHRFHNPKTNED [R16F] | 3.7
34 | KIREKEEWIKLDYHRYHNPKTNED [R16Y] | 4.31
35 | KIREKEEWIKLDYHRSHNPKTNED [R16S] | 5.12
36 | KIREKEEWIKLDYHRMHNPKTNED [R16M] | 4.63
37 | KIREKEEWIKLDYHRHHNPKTNED [R16H] | 4.4
38 | KIREKEEWIKLDYHRVHNPKTNED [R16V] | 3.62
39 | KIREKEEWIKLDYHRRHHPKTNED [N18H] | 4.27
40 | KIREKEEWIKLDYHRRHMPKTNED [N18M] | 4.42
41 | KIREKEEWIKLDYHRRHLPKTNED [N18L] | 3.79
42 | KIREKEEWIKLDYHRRHPPKTNED [N18P] | 4.89
43 | KIREKEEWIKLDYHRRHKPKTNED [N18K] | 4.46
44 | KIREKEEWIKLDYHRRHEPKTNED [N18E] | 4.48
45 | KIREKEEWIKLDYHRRHSPKTNED [N18S] | 4.91
46 | KIREKEEWIKLDYHRRHDPKTNED [N18D] | 4.86
47 | KIREKEEWIKLDYHRRHAPKTNED [N18A] | 4.32
48 | KIREKEEWIKLDYHRRHIPKTNED [N18I] | 4.19

Row | Variant | protein stability index
49 | KIREKEEWIKLDYHRRHQPKTNED [N18Q] | 3.97
50 | KIREKEEWIKLDYHRRHRPKTNED [N18R] | 4.31
51 | KIREKEEWIKLDYHRRHGPKTNED [N18G] | 4.93
52 | KIREKEEWIKLDYHRRHVPKTNED [N18V] | 4.32
53 | KIREKEEWIKLDYHRRHTPKTNED [N18T] | 4.27
54 | KIREKEEWIKLDYHRRHYPKTNED [N18Y] | 3.71
55 | KIREKEEWIKLDYHRRHCPKTNED [N18C] | 3.99
56 | KIREKEEWIKLDYHRRHFPKTNED [N18F] | 4
57 | KIREKEEWIKLDYHRRRNPKTNED [H17R] | 4.51
58 | KIREKEEWIKLDYHRRINPKTNED [H17I] | 4.5
59 | KIREKEEWIKLDYHRRPNPKTNED [H17P] | 5.17
60 | KIREKEEWIKLDYHRRMNPKTNED [H17M] | 4.21
61 | KIREKEEWIKLDYHRRNNPKTNED [H17N] | 4.16
62 | KIREKEEWIKLDYHRRKNPKTNED [H17K] | 4.23
63 | KIREKEEWIKLDYHRRVNPKTNED [H17V] | 4.87
64 | KIREKEEWIKLDYHRRTNPKTNED [H17T] | 4.57
65 | KIREKEEWIKLDYHRRQNPKTNED [H17Q] | 5.08
66 | KIREKEEWIKLDYHRRLNPKTNED [H17L] | 4.67
67 | KIREKEEWIKLDYHRRFNPKTNED [H17F] | 4.41
68 | KIREKEEWIKLDYHRRDNPKTNED [H17D] | 5.08
69 | KIREKEEWIKLDYHRRGNPKTNED [H17G] | 4.97
70 | KIREKEEWIKLDYHRRANPKTNED [H17A] | 4.71
71 | KIREKEEWIKLDYHRRYNPKTNED [H17Y] | 3.99
72 | KIREKEEWIKLDYHRRCNPKTNED [H17C] | 4.16

Row | Variant | protein stability index
73 | KIREKEEWIKLDYHRRSNPKTNED [H17S] | 4.83
74 | KIREKEEWIKLDYHRRENPKTNED [H17E] | 4.11
75 | KIREKEEWIKLDYHRRHNPKFNED [T21F] | 4.53
76 | KIREKEEWIKLDYHRRHNPKENED [T21E] | 4.6
77 | KIREKEEWIKLDYHRRHNPKCNED [T21C] | 4.57
78 | KIREKEEWIKLDYHRRHNPKDNED [T21D] | 4.79
79 | KIREKEEWIKLDYHRRHNPKGNED [T21G] | 5.12
80 | KIREKEEWIKLDYHRRHNPKANED [T21A] | 5.18
81 | KIREKEEWIKLDYHRRHNDKTNED [P19D] | 4.77
82 | KIREKEEWIKLDYHRRHNSKTNED [P19S] | 4.99
83 | KIREKEEWIKLDYHRRHNYKTNED [P19Y] | 4.06
84 | KIREKEEWIKLDYHRRHNNKTNED [P19N] | 5.13
85 | KIREKEEWIKLDYHRRHNIKTNED [P19I] | 4.92
86 | KIREKEEWIKLDYHRRHNEKTNED [P19E] | 4.65
87 | KIREKEEWIKLDYHRRHNGKTNED [P19G] | 4.46
88 | KIREKEEWIKLDYHRRHNCKTNED [P19C] | 4.61
89 | KIREKEEWIKLDYHRRHNLKTNED [P19L] | 3.91
90 | KIREKEEWIKLDYHRRHNWKTNED [P19W] | 4.33
91 | KIREKEEWIKLDYHRRHNHKTNED [P19H] | 4.3
92 | KIREKEEWIKLDYHRRHNAKTNED [P19A] | 4.59
93 | KIREKEEWIKLDYHRRHNMKTNED [P19M] | 4.71
94 | KIREKEEWIKLDYHRRHNTKTNED [P19T] | 4.49
